Measurements reported in patent US20140087995A1 (published 2014).
Numbered stars: 1 amine (or outer) side, 2 acyl side, 3 side chain; on linkers, the order of the positions; unused ones are H or OH. Bridge positions count the residues as written; N and C are the ends. Side chains are listed from the residue outwards. Ends that are not written are not given here. * marks the point of attachment. C20 diacid = O=C(O)CCCCCCCCCCCCCCCCCCC(=O)*; γGlu = O=C(O)[C@H](CCC(=O)[*:2])N[*:1]; AEEA = NCCOCCOCC(=O)O

T1: human amylin receptor (human calcitonin receptor co-expressed with RAMP-3; amylin 3(a) receptor) (human, UniProt P30988 25-474; O60896 24-148, limits assumed)
T1 construct: whole, on cells; Used as cell membranes prepared from Amylin 3(a)/CRE-luc BHK cells (Assay V), not as intact cells; also called hAmylin-R; hAmylinR
T1 sequence (looked up) 1: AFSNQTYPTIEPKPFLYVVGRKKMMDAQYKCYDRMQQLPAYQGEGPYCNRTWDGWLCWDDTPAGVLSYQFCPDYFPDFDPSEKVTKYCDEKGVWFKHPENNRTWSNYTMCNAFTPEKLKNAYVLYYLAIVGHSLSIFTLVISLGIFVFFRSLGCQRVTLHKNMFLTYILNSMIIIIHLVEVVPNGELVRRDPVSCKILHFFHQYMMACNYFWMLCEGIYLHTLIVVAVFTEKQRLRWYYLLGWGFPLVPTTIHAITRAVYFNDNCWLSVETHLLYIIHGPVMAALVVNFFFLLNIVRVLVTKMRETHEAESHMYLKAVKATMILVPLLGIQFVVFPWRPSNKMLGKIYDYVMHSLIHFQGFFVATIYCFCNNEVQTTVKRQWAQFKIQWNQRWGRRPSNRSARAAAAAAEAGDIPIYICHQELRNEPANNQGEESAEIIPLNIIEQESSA
T1 sequence (looked up) 2: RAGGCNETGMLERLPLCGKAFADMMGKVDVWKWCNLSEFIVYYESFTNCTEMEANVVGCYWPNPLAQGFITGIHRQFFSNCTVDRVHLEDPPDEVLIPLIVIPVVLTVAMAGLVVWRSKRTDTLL

T2: human calcitonin receptor (human, UniProt P30988 25-474)
T2 construct: whole, on cells; Used as cell membranes prepared from the transfected BHK cells (Assay VII), not as intact cells; also called hCTR; hCT
T2 sequence (looked up): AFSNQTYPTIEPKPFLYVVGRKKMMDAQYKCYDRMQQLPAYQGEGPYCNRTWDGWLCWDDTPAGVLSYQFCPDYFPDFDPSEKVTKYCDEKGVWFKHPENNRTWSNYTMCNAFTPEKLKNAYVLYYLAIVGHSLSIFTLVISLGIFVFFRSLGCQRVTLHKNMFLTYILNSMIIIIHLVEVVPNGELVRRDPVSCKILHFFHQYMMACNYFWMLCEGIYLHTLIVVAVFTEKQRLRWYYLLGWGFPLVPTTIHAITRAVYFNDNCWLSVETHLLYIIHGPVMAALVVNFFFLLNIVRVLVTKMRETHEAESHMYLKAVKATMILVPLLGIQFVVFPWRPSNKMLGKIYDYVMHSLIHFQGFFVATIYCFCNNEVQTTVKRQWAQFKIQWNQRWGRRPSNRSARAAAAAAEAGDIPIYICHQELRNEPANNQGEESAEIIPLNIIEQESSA


Legend:
[1] = biological target: T1, human amylin receptor (human calcitonin …); assay: ratio of hCTR binding IC50 to hAmylin-R binding IC50 (reference: human calcitonin receptor)
Protocol: The resulting pellet was resuspended, homogenized and centrifuged (20.000 rpm, 15 min) in a buffer containing 20 mM Na-HEPES and 0.1 mM EDTA (pH 7.4, buffer 2). The resulting pellet was resuspended in buffer 2 and protein concentration was measured (BCA protein Assay, Pierce). The homogenate was kept cold during the whole procedure. The membranes were kept at −80° C. until use. The assay was performed in a 384 well Optiplate (PerkinElmer) in a total volume of 40 ul. Membranes were mixed with SPA beads. Final concentration of membranes 35 ng/μL final and SPA beads was 0.05 mg/well. Test-compounds were dissolved in DMSO and further diluted in assay buffer (50 mM Hepes, pH 7.4, 1 mM CaCl2, 5 mM MgCl₂, 0.1% OA and 0.02% Tween20). […] The final mixture was incubated with shaking at 400 rpm for 120 min at 25° C. prior to centrifugation (1500 rpm, 10 min). Samples were analyzed on TopCounter™ (Packard). The IC₅₀ was calculated using (one site binding competition analysis) GraphPad Prism5 as a measure of receptor affinity.
Membranes were prepared in the following way; the cells were rinsed with PBS and incubated with Versene for approximately 5 min before harvesting. The cells were flushed with PBS and the cell-suspension was centrifuged for 5 min at 1000 rpm. Cells were homogenized (Ultrathurrax) in a buffer containing 20 mM Na-HEPES and 10 mM EDTA (pH 7.4) and centrifuged at 20.000 rpm for 15 min. The resulting pellet was resuspended, homogenized and centrifuged (20.000 rpm, 15 min) in a buffer containing 20 mM Na-HEPES and 0.1 mM EDTA (pH 7.4, buffer 2). The resulting pellet was resuspended in buffer 2 and protein concentration was measured (BCA protein Assay, Pierce). The homogenate was kept cold during the whole procedure. The membranes were kept at −80° C. until use. Assay was performed in a 384 well Optiplate (PerkinElmer) in a total volume of 40 ul. Membranes were mixed with SPA beads.

[2] = biological target: T2, human calcitonin receptor; assay: SPA competition against 125I-calcitonin, membranes with human calcitonin receptor (Assay VII)
In short: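 BHK hCTR membranes 35 ng/μL + SPA beads 0.05 mg/well; buffer 50 mM Hepes pH 7.4, 1 mM CaCl2, 5 mM MgCl₂, 0.1% OA, 0.02% Tween20. 120 min, 25° C., shaking. Scintillation count; IC50 by one-site binding competition.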

Ratio hCT/hAmylin binding [1]	IC50 [2] [nM]	Binder
133	15.3	K([AEEA-γGlu-C20 diacid])CNTATCATQRLANFLRHSSPNFGAIPSSTPVGSHTY-NH2 (disulfide 2-7; N-terminus assumed; SMILES CC[C@H](C)[C@H](NC(=O)[C@H](C)NC(=O)CNC(=O)[C@H](Cc1ccccc1)NC(=O)[C@H](CC(N)=O)NC(=O)[C@@H]1CCCN1C(=O)[C@H](CO)NC(=O)[C@H](CO)NC(=O)[C@H](Cc1c[nH]cn1)NC(=O)[C@H](CCCNC(=N)N)NC(=O)[C@H](CC(C)C)NC(=O)[C@H](Cc1ccccc1)NC(=O)[C@H](CC(N)=O)NC(=O)[C@H](C)NC(=O)[C@H](CC(C)C)NC(=O)[C@H](CCCNC(=N)N)NC(=O)[C@H](CCC(N)=O)NC(=O)[C@@H](NC(=O)[C@H](C)NC(=O)[C@@H]1CSSC[C@H](NC(=O)[C@@H](N)CCCCNC(=O)COCCOCCNC(=O)CC[C@H](NC(=O)CCCCCCCCCCCCCCCCCCC(=O)O)C(=O)O)C(=O)N[C@@H](CC(N)=O)C(=O)N[C@@H]([C@@H](C)O)C(=O)N[C@@H](C)C(=O)N[C@@H]([C@@H](C)O)C(=O)N1)[C@@H](C)O)C(=O)N1CCC[C@H]1C(=O)N[C@@H](CO)C(=O)N[C@@H](CO)C(=O)N[C@H](C(=O)N1CCC[C@H]1C(=O)N[C@H](C(=O)NCC(=O)N[C@@H](CO)C(=O)N[C@@H](Cc1c[nH]cn1)C(=O)N[C@H](C(=O)N[C@@H](Cc1ccc(O)cc1)C(N)=O)[C@@H](C)O)C(C)C)[C@@H](C)O, also called compound 57)
64.4	5.66	K([AEEA-γGlu-C20 diacid])CNTATCATQRLAHFLRHSSPNFGAIPSSTNVGPNTY-NH2 (disulfide 2-7; N-terminus assumed; SMILES CC[C@H](C)[C@H](NC(=O)[C@H](C)NC(=O)CNC(=O)[C@H](Cc1ccccc1)NC(=O)[C@H](CC(N)=O)NC(=O)[C@@H]1CCCN1C(=O)[C@H](CO)NC(=O)[C@H](CO)NC(=O)[C@H](Cc1c[nH]cn1)NC(=O)[C@H](CCCNC(=N)N)NC(=O)[C@H](CC(C)C)NC(=O)[C@H](Cc1ccccc1)NC(=O)[C@H](Cc1c[nH]cn1)NC(=O)[C@H](C)NC(=O)[C@H](CC(C)C)NC(=O)[C@H](CCCNC(=N)N)NC(=O)[C@H](CCC(N)=O)NC(=O)[C@@H](NC(=O)[C@H](C)NC(=O)[C@@H]1CSSC[C@H](NC(=O)[C@@H](N)CCCCNC(=O)COCCOCCNC(=O)CC[C@H](NC(=O)CCCCCCCCCCCCCCCCCCC(=O)O)C(=O)O)C(=O)N[C@@H](CC(N)=O)C(=O)N[C@@H]([C@@H](C)O)C(=O)N[C@@H](C)C(=O)N[C@@H]([C@@H](C)O)C(=O)N1)[C@@H](C)O)C(=O)N1CCC[C@H]1C(=O)N[C@@H](CO)C(=O)N[C@@H](CO)C(=O)N[C@H](C(=O)N[C@@H](CC(N)=O)C(=O)N[C@H](C(=O)NCC(=O)N1CCC[C@H]1C(=O)N[C@@H](CC(N)=O)C(=O)N[C@H](C(=O)N[C@@H](Cc1ccc(O)cc1)C(N)=O)[C@@H](C)O)C(C)C)[C@@H](C)O, also called compound 68)
109	9.63	K([AEEA-γGlu-C20 diacid])CNTATCATQRLANFLRHSSPNFGAIPSSTNVGPHTY-NH2 (disulfide 2-7; N-terminus assumed; SMILES CC[C@H](C)[C@H](NC(=O)[C@H](C)NC(=O)CNC(=O)[C@H](Cc1ccccc1)NC(=O)[C@H](CC(N)=O)NC(=O)[C@@H]1CCCN1C(=O)[C@H](CO)NC(=O)[C@H](CO)NC(=O)[C@H](Cc1c[nH]cn1)NC(=O)[C@H](CCCNC(=N)N)NC(=O)[C@H](CC(C)C)NC(=O)[C@H](Cc1ccccc1)NC(=O)[C@H](CC(N)=O)NC(=O)[C@H](C)NC(=O)[C@H](CC(C)C)NC(=O)[C@H](CCCNC(=N)N)NC(=O)[C@H](CCC(N)=O)NC(=O)[C@@H](NC(=O)[C@H](C)NC(=O)[C@@H]1CSSC[C@H](NC(=O)[C@@H](N)CCCCNC(=O)COCCOCCNC(=O)CC[C@H](NC(=O)CCCCCCCCCCCCCCCCCCC(=O)O)C(=O)O)C(=O)N[C@@H](CC(N)=O)C(=O)N[C@@H]([C@@H](C)O)C(=O)N[C@@H](C)C(=O)N[C@@H]([C@@H](C)O)C(=O)N1)[C@@H](C)O)C(=O)N1CCC[C@H]1C(=O)N[C@@H](CO)C(=O)N[C@@H](CO)C(=O)N[C@H](C(=O)N[C@@H](CC(N)=O)C(=O)N[C@H](C(=O)NCC(=O)N1CCC[C@H]1C(=O)N[C@@H](Cc1c[nH]cn1)C(=O)N[C@H](C(=O)N[C@@H](Cc1ccc(O)cc1)C(N)=O)[C@@H](C)O)C(C)C)[C@@H](C)O, also called compound 58)
66.7	8.11	K([AEEA-γGlu-C20 diacid])CNTATCATQRLAHFLRHSSPNFGAIPSSTPVGSNTY-NH2 (disulfide 2-7; N-terminus assumed; SMILES CC[C@H](C)[C@H](NC(=O)[C@H](C)NC(=O)CNC(=O)[C@H](Cc1ccccc1)NC(=O)[C@H](CC(N)=O)NC(=O)[C@@H]1CCCN1C(=O)[C@H](CO)NC(=O)[C@H](CO)NC(=O)[C@H](Cc1c[nH]cn1)NC(=O)[C@H](CCCNC(=N)N)NC(=O)[C@H](CC(C)C)NC(=O)[C@H](Cc1ccccc1)NC(=O)[C@H](Cc1c[nH]cn1)NC(=O)[C@H](C)NC(=O)[C@H](CC(C)C)NC(=O)[C@H](CCCNC(=N)N)NC(=O)[C@H](CCC(N)=O)NC(=O)[C@@H](NC(=O)[C@H](C)NC(=O)[C@@H]1CSSC[C@H](NC(=O)[C@@H](N)CCCCNC(=O)COCCOCCNC(=O)CC[C@H](NC(=O)CCCCCCCCCCCCCCCCCCC(=O)O)C(=O)O)C(=O)N[C@@H](CC(N)=O)C(=O)N[C@@H]([C@@H](C)O)C(=O)N[C@@H](C)C(=O)N[C@@H]([C@@H](C)O)C(=O)N1)[C@@H](C)O)C(=O)N1CCC[C@H]1C(=O)N[C@@H](CO)C(=O)N[C@@H](CO)C(=O)N[C@H](C(=O)N1CCC[C@H]1C(=O)N[C@H](C(=O)NCC(=O)N[C@@H](CO)C(=O)N[C@@H](CC(N)=O)C(=O)N[C@H](C(=O)N[C@@H](Cc1ccc(O)cc1)C(N)=O)[C@@H](C)O)C(C)C)[C@@H](C)O, also called compound 61)
36	1.38	K([AEEA-γGlu-C20 diacid])CNTATCATQRLANFLRHSSPNFGAIPSSTNVGPNTY-NH2 (disulfide 2-7; N-terminus assumed; SMILES CC[C@H](C)[C@H](NC(=O)[C@H](C)NC(=O)CNC(=O)[C@H](Cc1ccccc1)NC(=O)[C@H](CC(N)=O)NC(=O)[C@@H]1CCCN1C(=O)[C@H](CO)NC(=O)[C@H](CO)NC(=O)[C@H](Cc1c[nH]cn1)NC(=O)[C@H](CCCNC(=N)N)NC(=O)[C@H](CC(C)C)NC(=O)[C@H](Cc1ccccc1)NC(=O)[C@H](CC(N)=O)NC(=O)[C@H](C)NC(=O)[C@H](CC(C)C)NC(=O)[C@H](CCCNC(=N)N)NC(=O)[C@H](CCC(N)=O)NC(=O)[C@@H](NC(=O)[C@H](C)NC(=O)[C@@H]1CSSC[C@H](NC(=O)[C@@H](N)CCCCNC(=O)COCCOCCNC(=O)CC[C@H](NC(=O)CCCCCCCCCCCCCCCCCCC(=O)O)C(=O)O)C(=O)N[C@@H](CC(N)=O)C(=O)N[C@@H]([C@@H](C)O)C(=O)N[C@@H](C)C(=O)N[C@@H]([C@@H](C)O)C(=O)N1)[C@@H](C)O)C(=O)N1CCC[C@H]1C(=O)N[C@@H](CO)C(=O)N[C@@H](CO)C(=O)N[C@H](C(=O)N[C@@H](CC(N)=O)C(=O)N[C@H](C(=O)NCC(=O)N1CCC[C@H]1C(=O)N[C@@H](CC(N)=O)C(=O)N[C@H](C(=O)N[C@@H](Cc1ccc(O)cc1)C(N)=O)[C@@H](C)O)C(C)C)[C@@H](C)O, also called compound 50)
